These results are taken from patent US10588972B2, “Phthalocyanine probes and uses thereof” (LI-COR, INC., priority 2014, dated 2020).

Common to all, as to assay type: cell-based
Data set [1] relates to A431 cells. As to the kind of experiment: Photodynamic therapy effect on cell morphology and viability (Example 3). To be noted: for effect on cell morphology: probe 0.25 μM. The source says: This example illustrates the effect of photodynamic therapy based on IRDye® 700DX dye conjugates on cell morphology. Other methods for evaluating changes in morphology during the PDT with additional tests of key apoptotic markers including caspase 3/7, annexin-V, vitality %, mitochondrial potential, localization (intracellular/membrane, endosomal, lysosomal), singlet oxygen generation, other radicals, etc. It was critical to identify important parameters for generating reproducible effects including irradiation level, incubation time, probe type and/or required dose to initiate cytotoxicity. By measuring these key indicators the actions of IRDye® 700DX in its ability to induce cytotoxicity was defined.
FIGS. 6A-6B provide images of the controls which were A431 cells with no irradiation (NI) or with irradiation (I). The probe dose for the respective treatments was 0.25 μM and irradiation level was 16 J/cm^2. […] These are key features of cells undergoing apoptosis and/or necrosis.

Data set [2] concerns A431 cells. On the procedure: A different LED source was tested and evaluated to determine if a second source of LED would yield a similar effect as the standard LED used. A straight forward evaluation was set up with four treatments (treatments A-D). The tests were performed in triplicate in order to examine reproducibility. The test included the following four treatments: treatment A of no probe and irradiation, treatment B of IRdye® 700DX-labeled EGF and no irradiation, treatment C of IRDye® 700DX-labeled EGF and irradiation, and treatment D of IRDye® 700DX-labeled panitumumab and irradiation. The probe dose was about 0.1 μM labeled panitumumab and 0.5 μM 700DX-labeled EGF. Irradiation was for 10 minutes at an irradiation dose of 32 J/cm^2.
Significant and similar effects for both probes together and in triplicate thus providing clear evidence that IRDye® 700DX-labeled small protein can kill cells similarly to an IRDye 700DX-labeled antibody. Conditions for use of either probe may be unique to the individual probe. […] The fluorescent scale of the 700 nm images was the same for both treated sets of cells (FIGS. 12C-12D). Although the exact concentration of the antibody probe is not known, the signals from the different probes appear similar in level and intensity.

A further data set deals with HTB-186 cells. As to the kind of experiment: JC-1 mitochondrial membrane potential assay (Example 10, Table 8). The conditions noted are these: 32 J/cm^2, probe about 5 hours, 20 hours post irradiation; 700DX-RGD and 700DX-EGF 500 nM. On the procedure: This example illustrates the ability of IRDye® 700DX small molecule conjugates to induce apoptosis in cells, e.g., cancer cells. In this study HTB-186 cells (a desmoplastic cerebellar medulloblastoma cell line) were treated with IRDye® 700DX small molecule conjugates (IRDye® 700DX labeled chlorotoxin, anti-EGFR Affibody®, RGD peptide and EGF ligand). Apoptosis was measured by evaluating caspase 3/7 activity and mitochondrial membrane potential. […]
In this study a mitochondrial membrane potential assay was performed on cells from treatments 1-8 to determine whether the treated cells underwent apoptosis. […] As JC-1 dye accumulated in mitochondria, its fluorescence emission shifts from green (about 529 nm) to red (about 590 nm). The presence of red fluorescence due to JC-1 aggregate formation corresponds to regions of high mitochondrial polarization. Depolarized mitochondria are indicated by green fluorescence of the JC-1 monomers. A detectable decrease in the red/green fluorescence intensity ratio indicates mitochondrial depolarization, and thus, apoptosis. In a membrane potential assay, cells are incubated with the JC-1 dye and fluorescence is detected by, for example, flow cytometry, fluorescence microscopy, and fluorescence-based image cytometry. […]

Where [3] appears, read: no irradiation (NI), 700DX-EGF 0.5 μM.

Several values for one entry are separate records, joined by “and”; a condition that tells them apart may be missing. Equal values may be shown once. Read-outs that look alike come from different tables or passages of the source.

B1: 700DX-EGF (conjugate, UniProt P01133 23-1207, looked up)
Pro-epidermal growth factor: PQHWSCPEGTLAGNGNSTCVGPAPFLIFSHGNSIFRIDTEGTNYEQLVVDAGVSVIMDFHYNEKRIYWVDLERQLLQRVFLNGSRQERVCNIEKNVSGMAINWINEEVIWSNQQEGIITVTDMKGNNSHILLSALKYPANVAVDPVERFIFWSSEVAGSLYRADLDGVGVKALLETSEKITAVSLDVLDKRLFWIQYNREGSNSLICSCDYDGGSVHISKHPTQHNLFAMSLFGDRIFYSTWKMKTIWIANKHTGKDMVRINLHSSFVPLGELKVVHPLAQPKAEDDTWEPEQKLCKLRKGNCSSTVCGQDLQSHLCMCAEGYALSRDRKYCEDVNECAFWNHGCTLGCKNTPGSYYCTCPVGFVLLPDGKRCHQLVSCPRNVSECSHDCVLTSEGPLCFCPEGSVLERDGKTCSGCSSPDNGGCSQLCVPLSPVSWECDCFPGYDLQLDEKSCAASGPQPFLLFANSQDIRHMHFDGTDYGTLLSQQMGMVYALDHDPVENKIYFAHTALKWIERANMDGSQRERLIEEGVDVPEGLAVDWIGRRFYWTDRGKSLIGRSDLNGKRSKIITKENISQPRGIAVHPMAKRLFWTDTGINPRIESSSLQGLGRLVIASSDLIWPSGITIDFLTDKLYWCDAKQSVIEMANLDGSKRRRLTQNDVGHPFAVAVFEDYVWFSDWAMPSVMRVNKRTGKDRVRLQGSMLKPSSLVVVHPLAKPGADPCLYQNGGCEHICKKRLGTAWCSCREGFMKASDGKTCLALDGHQLLAGGEVDLKNQVTPLDILSKTRVSEDNITESQHMLVAEIMVSDQDDCAPVGCSMYARCISEGEDATCQCLKGFAGDGKLCSDIDECEMGVPVCPPASSKCINTEGGYVCRCSEGYQGDGIHCLDIDECQLGEHSCGENASCTNTEGGYTCMCAGRLSEPGLICPDSTPPPHLREDDHHYSVRNSDSECPLSHDGYCLHDGVCMYIEALDKYACNCVVGYIGERCQYRDLKWWELRHAGHGQQQKVIVVAVCVVVLVMLLLLSLWGAHYYRTQKLLSKNPKNPYEESSRDVRSRRPADTEDGMSSCPQPWFVVIKEHQDLKNGGQPVAGEDGQAADGSMQPTSWRQEPQLCGMGTEQGCWIPVSSDKGSCPQVMERSFHMPSYGTQTLEGGVEKPHSLLSANPLWQQRALDPPHQMELTQ
modifications: Pro-epidermal growth factor IRDye 700DX conjugate
Turning to B1, the “cytotoxicity by cell viability” value in the data set on A431 cells [1] (24 h post irradiation) was “only the probe treated with irradiation induced cytotoxicity”. The “effect on cell morphology” value in the data set with A431 cells [1] (irradiation 16 J/cm^2) is “dramatically altered with condensation of nuclei and cell dehydration”; in the data set on A431 cells [1] (no irradiation (NI)) it was “no deleterious effect on cell morphology”. In addition, the “effect on cells (morphology)” value with A431 cells [2] (irradiated 10 minutes, 32 J/cm^2) is “severely affected by the irradiating energy and were dying”. In addition, the Cells/mL in the data set on A431 cells [2] (irradiated (I) 10 minutes, 32 J/cm^2, 700DX-EGF 0.5 μM, 700DX-Pan about 0.1 μM) was 2.8 × 10^5 Cells/mL and 4.1 × 10^5 Cells/mL and 3.8 × 10^5 Cells/mL; with A431 cells [2] (setting [3]), 6.6 × 10^5 Cells/mL and 8.0 × 10^5 Cells/mL and 7.7 × 10^5 Cells/mL. In addition, in the data set on A431 cells [2] (setting [3]), the “% Vitality” value was 97.9% and 98.3% and 96.0%. Also, the VB-48 % necrotic in the data set on A431 cells [2] (setting [3]) was 11% and 12% and 10%. For the same molecule, in the data set on HTB-186 cells, the JC-1 % shift worked out at 42%.
